# Measurements as given in paper PMC7367873, “Dissecting the sequence determinants for dephosphorylation by the catalytic subunits of phosphatases PP1 and PP2A” (Nature Communications, 2020).
# B1: PPP1R12A (protein, UniProt O14974 1-1030, looked up)
# Protein phosphatase 1 …: MKMADAKQKRNEQLKRWIGSETDLEPPVVKRQKTKVKFDDGAVFLAACSSGDTDEVLKLLHRGADINYANVDGLTALHQACIDDNVDMVKFLVENGANINQPDNEGWIPLHAAASCGYLDIAEFLIGQGAHVGAVNSEGDTPLDIAEEEAMEELLQNEVNRQGVDIEAARKEEERIMLRDARQWLNSGHINDVRHAKSGGTALHVAAAKGYTEVLKLLIQAGYDVNIKDYDGWTPLHAAAHWGKEEACRILVDNLCDMEMVNKVGQTAFDVADEDILGYLEELQKKQNLLHSEKRDKKSPLIESTANMDNNQSQKTFKNKETLIIEPEKNASRIESLEQEKVDEEEEGKKDESSCSSEEDEEDDSESEAETDKTKPLASVTNANTSSTQAAPVAVTTPTVSSGQATPTSPIKKFPTTATKISPKEEERKDESPATWRLGLRKTGSYGALAEITASKEGQKEKDTAGVTRSASSPRLSSSLDNKEKEKDSKGTRLAYVAPTIPRRLASTSDIEEKENRDSSSLRTSSSYTRRKWEDDLKKNSSVNEGSTYHKSCSFGRRQDDLISSSVPSTTSTPTVTSAAGLQKSLLSSTSTTTKITTGSSSAGTQSSTSNRLWAEDSTEKEKDSVPTAVTIPVAPTVVNAAASTTTLTTTTAGTVSSTTEVRERRRSYLTPVRDEESESQRKARSRQARQSRRSTQGVTLTDLQEAEKTIGRSRSTRTREQENEEKEKEEKEKQDKEKQEEKKESETSREDEYKQKYSRTYDETYQRYRPVSTSSSTTPSSSLSTMSSSLYASSQLNRPNSLVGITSAYSRGITKENEREGEKREEEKEGEDKSQPKSIRERRRPREKRRSTGVSFWTQDSDENEQEQQSDTEEGSNKKETQTDSISRYETSSTSAGDRYDSLLGRSGSYSYLEERKPYSSRLEKDDSTDFKKLYEQILAENEKLKAQLHDTNMELTDLKLQLEKATQRQERFADRSLLEMEKRERRALERRISEMEEELKMLPDLKADNQRLKDENGALIRVISKLSK
# B2: MITF (protein, UniProt O75030 1-526, looked up)
# Microphthalmia-associated …: MQSESGIVPDFEVGEEFHEEPKTYYELKSQPLKSSSSAEHPGASKPPISSSSMTSRILLRQQLMREQMQEQERREQQQKLQAAQFMQQRVPVSQTPAINVSVPTTLPSATQVPMEVLKVQTHLENPTKYHIQQAQRQQVKQYLSTTLANKHANQVLSLPCPNQPGDHVMPPVPGSSAPNSPMAMLTLNSNCEKEGFYKFEEQNRAESECPGMNTHSRASCMQMDDVIDDIISLESSYNEEILGLMDPALQMANTLPVSGNLIDLYGNQGLPPPGLTISNSCPANLPNIKRELTACIFPTESEARALAKERQKKDNHNLIERRRRFNINDRIKELGTLIPKSNDPDMRWNKGTILKASVDYIRKLQREQQRAKELENRQKKLEHANRHLLLRIQELEMQARAHGLSLIPSTGLCSPDLVNRIIKQEPVLENCSQDLLQHHADLTCTTTLDLTDGTITFNNNLGTGTEANQAYSVPTKMGSKLEDILMDDTLSPVGVTDPLLSSVSPGASKTSSRRSSMSMEETEHTC
# B3: CCT2 (protein, UniProt P78371 2-535, looked up)
# T-complex protein 1 subunit …: ASLSLAPVNIFKAGADEERAETARLTSFIGAIAIGDLVKSTLGPKGMDKILLSSGRDASLMVTNDGATILKNIGVDNPAAKVLVDMSRVQDDEVGDGTTSVTVLAAELLREAESLIAKKIHPQTIIAGWREATKAAREALLSSAVDHGSDEVKFRQDLMNIAGTTLSSKLLTHHKDHFTKLAVEAVLRLKGSGNLEAIHIIKKLGGSLADSYLDEGFLLDKKIGVNQPKRIENAKILIANTGMDTDKIKIFGSRVRVDSTAKVAEIEHAEKEKMKEKVERILKHGINCFINRQLIYNYPEQLFGAAGVMAIEHADFAGVERLALVTGGEIASTFDHPELVKLGSCKLIEEVMIGEDKLIHFSGVALGEACTIVLRGATQQILDEAERSLHDALCVLAQTVKDSRTVYGGGCSEMLMAHAVTQLANRTPGKEAVAMESYAKALRMLPTIIADNAGYDSADLVAQLRAAHSEGNTTAGLDMREGTIGDMAILGITESFQVKRQVLLSAAEAAEVILRVDNIIKAAPRKRVPDHHPC
# B4: NOP2 (protein, UniProt P46087 1-812, looked up)
# 28S rRNA …: MGRKLDPTKEKRGPGRKARKQKGAETELVRFLPAVSDENSKRLSSRARKRAAKRRLGSVEAPKTNKSPEAKPLPGKLPKGISAGAVQTAGKKGPQSLFNAPRGKKRPAPGSDEEEEEEDSEEDGMVNHGDLWGSEDDADTVDDYGADSNSEDEEEGEALLPIERAARKQKAREAAAGIQWSEEETEDEEEEKEVTPESGPPKVEEADGGLQINVDEEPFVLPPAGEMEQDAQAPDLQRVHKRIQDIVGILRDFGAQREEGRSRSEYLNRLKKDLAIYYSYGDFLLGKLMDLFPLSELVEFLEANEVPRPVTLRTNTLKTRRRDLAQALINRGVNLDPLGKWSKTGLVVYDSSVPIGATPEYLAGHYMLQGASSMLPVMALAPQEHERILDMCCAPGGKTSYMAQLMKNTGVILANDANAERLKSVVGNLHRLGVTNTIISHYDGRQFPKVVGGFDRVLLDAPCSGTGVISKDPAVKTNKDEKDILRCAHLQKELLLSAIDSVNATSKTGGYLVYCTCSITVEENEWVVDYALKKRNVRLVPTGLDFGQEGFTRFRERRFHPSLRSTRRFYPHTHNMDGFFIAKFKKFSNSIPQSQTGNSETATPTNVDLPQVIPKSENSSQPAKKAKGAAKTKQQLQKQQHPKKASFQKLNGISKGADSELSTVPSVTKTQASSSFQDSSQPAGKAEGIREPKVTGKLKQRSPKLQSSKKVAFLRQNAPPKGTDTQTPAVLSPSKTQATLKPKDHHQPLGRAKGVEKQQLPEQPFEKAAFQKQNDTPKGPQPPTVSPIRSSRPPPAKRKKSQSRGNSQLLLS
# B5: SH3PXD2A (protein, UniProt Q5TCZ1 1-1133, looked up)
# SH3 and PX domain-containing …: MLAYCVQDATVVDVEKRRNPSKHYVYIINVTWSDSTSQTIYRRYSKFFDLQMQLLDKFPIEGGQKDPKQRIIPFLPGKILFRRSHIRDVAVKRLKPIDEYCRALVRLPPHISQCDEVFRFFEARPEDVNPPKEDYGSSKRKSVWLSSWAESPKKDVTGADATAEPMILEQYVVVSNYKKQENSELSLQAGEVVDVIEKNESGWWFVSTSEEQGWVPATYLEAQNGTRDDSDINTSKTGEVSKRRKAHLRRLDRRWTLGGMVNRQHSREEKYVTVQPYTSQSKDEIGFEKGVTVEVIRKNLEGWWYIRYLGKEGWAPASYLKKAKDDLPTRKKNLAGPVEIIGNIMEISNLLNKKASGDKETPPAEGEGHEAPIAKKEISLPILCNASNGSAVGVPDRTVSRLAQGSPAVARIAPQRAQISSPNLRTRPPPRRESSLGFQLPKPPEPPSVEVEYYTIAEFQSCISDGISFRGGQKAEVIDKNSGGWWYVQIGEKEGWAPASYIDKRKKPNLSRRTSTLTRPKVPPPAPPSKPKEAEEGPTGASESQDSPRKLKYEEPEYDIPAFGFDSEPELSEEPVEDRASGERRPAQPHRPSPASSLQRARFKVGESSEDVALEEETIYENEGFRPYAEDTLSARGSSGDSDSPGSSSLSLTRKNSPKSGSPKSSSLLKLKAEKNAQAEMGKNHSSASFSSSITINTTCCSSSSSSSSSLSKTSGDLKPRSASDAGIRGTPKVRAKKDADANAGLTSCPRAKPSVRPKPFLNRAESQSQEKMDISTLRRQLRPTGQLRGGLKGSKSEDSELPPQTASEAPSEGSRRSSSDLITLPATTPPCPTKKEWEGPATSYMTCSAYQKVQDSEISFPAGVEVQVLEKQESGWWYVRFGELEGWAPSHYLVLDENEQPDPSGKELDTVPAKGRQNEGKSDSLEKIERRVQALNTVNQSKKATPPIPSKPPGGFGKTSGTPAVKMRNGVRQVAVRPQSVFVSPPPKDNNLSCALRRNESLTATDGLRGVRRNSSFSTARSAAAEAKGRLAERAASQGSDSPLLPAQRNSIPVSPVRPKPIEKSQFIHNNLKDVYVSIADYEGDEETAGFQEGVSMEVLERNPNGWWYCQILDGVKPFKGWVPSNYLEKKN
# B6: MAP3K2 (protein, UniProt Q9Y2U5 1-619, looked up)
# Mitogen-activated protein …: MDDQQALNSIMQDLAVLHKASRPALSLQETRKAKSSSPKKQNDVRVKFEHRGEKRILQFPRPVKLEDLRSKAKIAFGQSMDLHYTNNELVIPLTTQDDLDKAVELLDRSIHMKSLKILLVINGSTQATNLEPLPSLEDLDNTVFGAERKKRLSIIGPTSRDRSSPPPGYIPDELHQVARNGSFTSINSEGEFIPESMDQMLDPLSLSSPENSGSGSCPSLDSPLDGESYPKSRMPRAQSYPDNHQEFSDYDNPIFEKFGKGGTYPRRYHVSYHHQEYNDGRKTFPRARRTQGTSLRSPVSFSPTDHSLSTSSGSSIFTPEYDDSRIRRRGSDIDNPTLTVMDISPPSRSPRAPTNWRLGKLLGQGAFGRVYLCYDVDTGRELAVKQVQFDPDSPETSKEVNALECEIQLLKNLLHERIVQYYGCLRDPQEKTLSIFMEYMPGGSIKDQLKAYGALTENVTRKYTRQILEGVHYLHSNMIVHRDIKGANILRDSTGNVKLGDFGASKRLQTICLSGTGMKSVTGTPYWMSPEVISGEGYGRKADIWSVACTVVEMLTEKPPWAEFEAMAAIFKIATQPTNPKLPPHVSDYTRDFLKRIFVEAKLRPSADELLRHMFVHYH
# B7: RHPN2 (protein, UniProt Q8IUC4 1-686, looked up)
# Rhophilin-2: MTDALLPAAPQPLEKENDGYFRKGCNPLAQTGRSKLQNQRAALNQQILKAVRMRTGAENLLKVATNSKVREQVRLELSFVNSDLQMLKEELEGLNISVGVYQNTEEAFTIPLIPLGLKETKDVDFAVVLKDFILEHYSEDGYLYEDEIADLMDLRQACRTPSRDEAGVELLMTYFIQLGFVESRFFPPTRQMGLLFTWYDSLTGVPVSQQNLLLEKASVLFNTGALYTQIGTRCDRQTQAGLESAIDAFQRAAGVLNYLKDTFTHTPSYDMSPAMLSVLVKMMLAQAQESVFEKISLPGIRNEFFMLVKVAQEAAKVGEVYQQLHAAMSQAPVKENIPYSWASLACVKAHHYAALAHYFTAILLIDHQVKPGTDLDHQEKCLSQLYDHMPEGLTPLATLKNDQQRRQLGKSHLRRAMAHHEESVREASLCKKLRSIEVLQKVLCAAQERSRLTYAQHQEEDDLLNLIDAPSVVAKTEQEVDIILPQFSKLTVTDFFQKLGPLSVFSANKRWTPPRSIRFTAEEGDLGFTLRGNAPVQVHFLDPYCSASVAGAREGDYIVSIQLVDCKWLTLSEVMKLLKSFGEDEIEMKVVSLLDSTSSMHNKSATYSVGMQKTYSMICLAIDDDDKTDKTKKISKKLSFLSWGTNKNRQKSASTLCLPSVGAARPQVKKKLPSPFSLLNSDSSWY
# System: GFP-14-3-3β and its binding proteins
# Test: GFP-14-3-3β co-IP with LC-MS/MS label-free quantification, untreated versus PP1c-treated
# Design: species or system human
# Conditions: PP1 vs untreated; LFQ intensities, replicates 1-3
row,Molecule,"Difference (log2), PP1 vs untreated"
1,B1,-1.93 log2
2,B2,-1.637 log2
3,B3,-1.71 log2
4,B4,-1.5353 log2
5,B5,-1.555 log2
6,B6,-1.618 log2
7,B7,-1.815 log2

# System: GFP-14-3-3β
# Test: GFP-14-3-3β co-IP with LC-MS/MS, untreated GFP-14-3-3β versus GFP control (14-3-3 interactome)
# Format: binding, human
# Conditions: untreated vs GFP; LFQ intensities, replicates 1-3
row,Molecule,"Difference (log2), untreated vs GFP"
1,B1,2.126 log2
2,B2,4.611 log2
3,B3,0.06414 log2
4,B4,2.385 log2
5,B5,3.934 log2
6,B6,6.201 log2
7,B7,5.43 log2
